Laboratory results taken from US9657062B2, “Ghrelin analogues” (Zealand Pharma A/S, priority 2012, dated 2017).
*1 amine or outer side, *2 acyl side, *3 side chain or, on linkers, in order; H or OH if unused. [ ]: non-standard residue; d: D form. The star is where a group is joined. Achc(cis-1,4) = O=C([C@H]1CC[C@@H](N[*:1])CC1)[*:2]; Octanoyl = CCCCCCCC(=O)*; Octyl = CCCCCCCC*

molecular target: human growth hormone secretagogue receptor type 1a (human, UniProt Q92847 1-366); experiment: cell-based or functional assay
Sequence (Q92847 whole entry): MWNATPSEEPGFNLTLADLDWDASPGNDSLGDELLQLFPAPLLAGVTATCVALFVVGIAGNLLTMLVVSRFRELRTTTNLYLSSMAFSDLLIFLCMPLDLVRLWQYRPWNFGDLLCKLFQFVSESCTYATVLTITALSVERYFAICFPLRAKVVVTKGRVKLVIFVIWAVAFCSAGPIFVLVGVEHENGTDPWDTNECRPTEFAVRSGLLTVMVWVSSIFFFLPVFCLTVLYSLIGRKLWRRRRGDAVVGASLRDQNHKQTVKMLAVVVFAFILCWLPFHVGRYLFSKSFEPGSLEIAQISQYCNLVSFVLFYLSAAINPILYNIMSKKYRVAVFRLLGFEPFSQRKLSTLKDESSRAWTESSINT

Row | Binder | EC50 (nM); Ca2+ induction in HEK293 cells stably expressing the human ghrelin receptor
1 | H-PSS(Octanoyl)FLSPYHQRVQYRKESKKPPAYLQPR-NH2 (SMILES CCCCCCCC(=O)OC[C@H](NC(=O)[C@H](CO)NC(=O)[C@@H]1CCCN1)C(=O)N[C@@H](Cc1ccccc1)C(=O)N[C@@H](CC(C)C)C(=O)N[C@@H](CO)C(=O)N1CCC[C@H]1C(=O)N[C@@H](Cc1ccc(O)cc1)C(=O)N[C@@H](Cc1c[nH]cn1)C(=O)N[C@@H](CCC(N)=O)C(=O)N[C@@H](CCCNC(=N)N)C(=O)N[C@H](C(=O)N[C@@H](CCC(N)=O)C(=O)N[C@@H](Cc1ccc(O)cc1)C(=O)N[C@@H](CCCNC(=N)N)C(=O)N[C@@H](CCCCN)C(=O)N[C@@H](CCC(=O)O)C(=O)N[C@@H](CO)C(=O)N[C@@H](CCCCN)C(=O)N[C@@H](CCCCN)C(=O)N1CCC[C@H]1C(=O)N1CCC[C@H]1C(=O)N[C@@H](C)C(=O)N[C@@H](Cc1ccc(O)cc1)C(=O)N[C@@H](CC(C)C)C(=O)N[C@@H](CCC(N)=O)C(=O)N1CCC[C@H]1C(=O)N[C@@H](CCCNC(=N)N)C(N)=O)C(C)C) [H-PS-S(octanoyl)-FLSPYHQRVQYRKESKKPPAYLQPR-NH2] | 0.594 nM
2 | H-PSS(Octyl)FLSPEHQRVQRKESKKPPAKLQPR-NH2 (SMILES CCCCCCCCOC[C@H](NC(=O)[C@H](CO)NC(=O)[C@@H]1CCCN1)C(=O)N[C@@H](Cc1ccccc1)C(=O)N[C@@H](CC(C)C)C(=O)N[C@@H](CO)C(=O)N1CCC[C@H]1C(=O)N[C@@H](CCC(=O)O)C(=O)N[C@@H](Cc1c[nH]cn1)C(=O)N[C@@H](CCC(N)=O)C(=O)N[C@@H](CCCNC(=N)N)C(=O)N[C@H](C(=O)N[C@@H](CCC(N)=O)C(=O)N[C@@H](CCCNC(=N)N)C(=O)N[C@@H](CCCCN)C(=O)N[C@@H](CCC(=O)O)C(=O)N[C@@H](CO)C(=O)N[C@@H](CCCCN)C(=O)N[C@@H](CCCCN)C(=O)N1CCC[C@H]1C(=O)N1CCC[C@H]1C(=O)N[C@@H](C)C(=O)N[C@@H](CCCCN)C(=O)N[C@@H](CC(C)C)C(=O)N[C@@H](CCC(N)=O)C(=O)N1CCC[C@H]1C(=O)N[C@@H](CCCNC(=N)N)C(N)=O)C(C)C) [H-PS-S(O-octyl)-FLSPEHQRVQRKESKKPPAKLQPR-NH2] | 0.33 nM
3 | H-PSS(Octyl)FLSPEHQRVQQRKES-NH2 (SMILES CCCCCCCCOC[C@H](NC(=O)[C@H](CO)NC(=O)[C@@H]1CCCN1)C(=O)N[C@@H](Cc1ccccc1)C(=O)N[C@@H](CC(C)C)C(=O)N[C@@H](CO)C(=O)N1CCC[C@H]1C(=O)N[C@@H](CCC(=O)O)C(=O)N[C@@H](Cc1c[nH]cn1)C(=O)N[C@@H](CCC(N)=O)C(=O)N[C@@H](CCCNC(=N)N)C(=O)N[C@H](C(=O)N[C@@H](CCC(N)=O)C(=O)N[C@@H](CCC(N)=O)C(=O)N[C@@H](CCCNC(=N)N)C(=O)N[C@@H](CCCCN)C(=O)N[C@@H](CCC(=O)O)C(=O)N[C@@H](CO)C(N)=O)C(C)C) [H-PS-S(O-octyl)-FLSPEHQRVQQRKES-NH2] | 0.221 nM
4 | H-PSS(Octanoyl)FLSPEHQRVQQRKESKKPPAYLQPR-NH2 (SMILES CCCCCCCC(=O)OC[C@H](NC(=O)[C@H](CO)NC(=O)[C@@H]1CCCN1)C(=O)N[C@@H](Cc1ccccc1)C(=O)N[C@@H](CC(C)C)C(=O)N[C@@H](CO)C(=O)N1CCC[C@H]1C(=O)N[C@@H](CCC(=O)O)C(=O)N[C@@H](Cc1c[nH]cn1)C(=O)N[C@@H](CCC(N)=O)C(=O)N[C@@H](CCCNC(=N)N)C(=O)N[C@H](C(=O)N[C@@H](CCC(N)=O)C(=O)N[C@@H](CCC(N)=O)C(=O)N[C@@H](CCCNC(=N)N)C(=O)N[C@@H](CCCCN)C(=O)N[C@@H](CCC(=O)O)C(=O)N[C@@H](CO)C(=O)N[C@@H](CCCCN)C(=O)N[C@@H](CCCCN)C(=O)N1CCC[C@H]1C(=O)N1CCC[C@H]1C(=O)N[C@@H](C)C(=O)N[C@@H](Cc1ccc(O)cc1)C(=O)N[C@@H](CC(C)C)C(=O)N[C@@H](CCC(N)=O)C(=O)N1CCC[C@H]1C(=O)N[C@@H](CCCNC(=N)N)C(N)=O)C(C)C) [H-PS-S(octanoyl)-FLSPEHQRVQQRKESKKPPAYLQPR-NH2] | 0.252 nM
5 | XSSFLSPEHQRVQQRKESKKPPAKLQPR (DPro at position 1; Ser(O-octanoyl) at position 3; C-terminal -OH) [H-[DPro]-S-S(O-octanoyl)-FLSPEHQRVQQRKESKKPPAKLQPR-OH] | 0.786 nM
6 | H-PSS(Octyl)FLSPEHSR-NH2 (SMILES CCCCCCCCOC[C@H](NC(=O)[C@H](CO)NC(=O)[C@@H]1CCCN1)C(=O)N[C@@H](Cc1ccccc1)C(=O)N[C@@H](CC(C)C)C(=O)N[C@@H](CO)C(=O)N1CCC[C@H]1C(=O)N[C@@H](CCC(=O)O)C(=O)N[C@@H](Cc1c[nH]cn1)C(=O)N[C@@H](CO)C(=O)N[C@@H](CCCNC(=N)N)C(N)=O) [H-PS-S(O-octyl)-FLSPEHSR-NH2] | 0.44 nM
7 | H-PSS(Octanoyl)FLSPEHQRVQYRKESKKPPAKLQPR-NH2 (SMILES CCCCCCCC(=O)OC[C@H](NC(=O)[C@H](CO)NC(=O)[C@@H]1CCCN1)C(=O)N[C@@H](Cc1ccccc1)C(=O)N[C@@H](CC(C)C)C(=O)N[C@@H](CO)C(=O)N1CCC[C@H]1C(=O)N[C@@H](CCC(=O)O)C(=O)N[C@@H](Cc1c[nH]cn1)C(=O)N[C@@H](CCC(N)=O)C(=O)N[C@@H](CCCNC(=N)N)C(=O)N[C@H](C(=O)N[C@@H](CCC(N)=O)C(=O)N[C@@H](Cc1ccc(O)cc1)C(=O)N[C@@H](CCCNC(=N)N)C(=O)N[C@@H](CCCCN)C(=O)N[C@@H](CCC(=O)O)C(=O)N[C@@H](CO)C(=O)N[C@@H](CCCCN)C(=O)N[C@@H](CCCCN)C(=O)N1CCC[C@H]1C(=O)N1CCC[C@H]1C(=O)N[C@@H](C)C(=O)N[C@@H](CCCCN)C(=O)N[C@@H](CC(C)C)C(=O)N[C@@H](CCC(N)=O)C(=O)N1CCC[C@H]1C(=O)N[C@@H](CCCNC(=N)N)C(N)=O)C(C)C) [H-PS-S(octanoyl)-FLSPEHQRVQYRKESKKPPAKLQPR-NH2] | 0.198 nM
8 | H-FSS(Octanoyl)FLSPEHQRVQQRKESKKPPAKLQPR-OH (SMILES CCCCCCCC(=O)OC[C@H](NC(=O)[C@H](CO)NC(=O)[C@@H](N)Cc1ccccc1)C(=O)N[C@@H](Cc1ccccc1)C(=O)N[C@@H](CC(C)C)C(=O)N[C@@H](CO)C(=O)N1CCC[C@H]1C(=O)N[C@@H](CCC(=O)O)C(=O)N[C@@H](Cc1c[nH]cn1)C(=O)N[C@@H](CCC(N)=O)C(=O)N[C@@H](CCCNC(=N)N)C(=O)N[C@H](C(=O)N[C@@H](CCC(N)=O)C(=O)N[C@@H](CCC(N)=O)C(=O)N[C@@H](CCCNC(=N)N)C(=O)N[C@@H](CCCCN)C(=O)N[C@@H](CCC(=O)O)C(=O)N[C@@H](CO)C(=O)N[C@@H](CCCCN)C(=O)N[C@@H](CCCCN)C(=O)N1CCC[C@H]1C(=O)N1CCC[C@H]1C(=O)N[C@@H](C)C(=O)N[C@@H](CCCCN)C(=O)N[C@@H](CC(C)C)C(=O)N[C@@H](CCC(N)=O)C(=O)N1CCC[C@H]1C(=O)N[C@@H](CCCNC(=N)N)C(=O)O)C(C)C) [H-FS-S(O-octanoyl)-FLSPEHQRVQQRKESKKPPAKLQPR-OH] | 0.714 nM
9 | H-[Achc(cis-1,4)]S(Octyl)FLSPEHQRVQQRKESKKPPAKLQPR-NH2 (SMILES CCCCCCCCOC[C@H](NC(=O)[C@H]1CC[C@@H](N)CC1)C(=O)N[C@@H](Cc1ccccc1)C(=O)N[C@@H](CC(C)C)C(=O)N[C@@H](CO)C(=O)N1CCC[C@H]1C(=O)N[C@@H](CCC(=O)O)C(=O)N[C@@H](Cc1c[nH]cn1)C(=O)N[C@@H](CCC(N)=O)C(=O)N[C@@H](CCCNC(=N)N)C(=O)N[C@H](C(=O)N[C@@H](CCC(N)=O)C(=O)N[C@@H](CCC(N)=O)C(=O)N[C@@H](CCCNC(=N)N)C(=O)N[C@@H](CCCCN)C(=O)N[C@@H](CCC(=O)O)C(=O)N[C@@H](CO)C(=O)N[C@@H](CCCCN)C(=O)N[C@@H](CCCCN)C(=O)N1CCC[C@H]1C(=O)N1CCC[C@H]1C(=O)N[C@@H](C)C(=O)N[C@@H](CCCCN)C(=O)N[C@@H](CC(C)C)C(=O)N[C@@H](CCC(N)=O)C(=O)N1CCC[C@H]1C(=O)N[C@@H](CCCNC(=N)N)C(N)=O)C(C)C) [H-[cACC]-S(O-octyl)-FLSPEHQRVQQRKESKKPPAKLQPR-NH2] | 0.271 nM
10 | H-PSS(Octyl)FLSPEHQRVQQRKESKKPPA-NH2 (SMILES CCCCCCCCOC[C@H](NC(=O)[C@H](CO)NC(=O)[C@@H]1CCCN1)C(=O)N[C@@H](Cc1ccccc1)C(=O)N[C@@H](CC(C)C)C(=O)N[C@@H](CO)C(=O)N1CCC[C@H]1C(=O)N[C@@H](CCC(=O)O)C(=O)N[C@@H](Cc1c[nH]cn1)C(=O)N[C@@H](CCC(N)=O)C(=O)N[C@@H](CCCNC(=N)N)C(=O)N[C@H](C(=O)N[C@@H](CCC(N)=O)C(=O)N[C@@H](CCC(N)=O)C(=O)N[C@@H](CCCNC(=N)N)C(=O)N[C@@H](CCCCN)C(=O)N[C@@H](CCC(=O)O)C(=O)N[C@@H](CO)C(=O)N[C@@H](CCCCN)C(=O)N[C@@H](CCCCN)C(=O)N1CCC[C@H]1C(=O)N1CCC[C@H]1C(=O)N[C@@H](C)C(N)=O)C(C)C) [H-PS-S(O-octyl)-FLSPEHQRVQQRKESKKPPA-NH2] | 0.231 nM
11 | H-PSS(Octyl)FLSPEHQRVQQRKESKKPPAKLQPR-NH2 [H-PS-S(O-octyl)-FLSPEHQRVQQRKESKKPPAKLQPR-NH2] | 0.396 nM
12 | H-PSS(Octyl)FLSPEHSRVSSR-NH2 (SMILES CCCCCCCCOC[C@H](NC(=O)[C@H](CO)NC(=O)[C@@H]1CCCN1)C(=O)N[C@@H](Cc1ccccc1)C(=O)N[C@@H](CC(C)C)C(=O)N[C@@H](CO)C(=O)N1CCC[C@H]1C(=O)N[C@@H](CCC(=O)O)C(=O)N[C@@H](Cc1c[nH]cn1)C(=O)N[C@@H](CO)C(=O)N[C@@H](CCCNC(=N)N)C(=O)N[C@H](C(=O)N[C@@H](CO)C(=O)N[C@@H](CO)C(=O)N[C@@H](CCCNC(=N)N)C(N)=O)C(C)C) [H-PS-S(O-octyl)-FLSPEHSRVSSR-NH2] | 0.467 nM
13 | H-PS[NH‑CH(n-C10H21)‑C(O)]FLSPEHQRVQRKESKKPPAKLQPR-NH2 [H-PS-[NH-CH(n-C10H21)-C(O)]-FLSPEHQRVQRKESKKPPAKLQPR-NH2] | 0.23 nM
14 | H-PS[NH‑CH(n-C10H21)‑C(O)]FLSPEHQRVQQRKESKKPPAKLQPR-NH2 [H-PS-[NH-CH(n-C10H21)-C(O)]-FLSPEHQRVQQRKESKKPPAKLQPR-NH2] | 0.333 nM
